# In US20150376294A1 (RIGSHOSPITALET, published 2015):
# T1: Peptidylarginine Deiminase isolated from rabbit skeletal muscle (rPAD2) (rabbit, UniProt P20717 1-665 (rat entry), limits assumed)
# T1 construct: Bought (Sigma-Aldrich), isolated from rabbit skeletal muscle; also called Rabbit PAD2; rabbit PAD2
# T1 chain: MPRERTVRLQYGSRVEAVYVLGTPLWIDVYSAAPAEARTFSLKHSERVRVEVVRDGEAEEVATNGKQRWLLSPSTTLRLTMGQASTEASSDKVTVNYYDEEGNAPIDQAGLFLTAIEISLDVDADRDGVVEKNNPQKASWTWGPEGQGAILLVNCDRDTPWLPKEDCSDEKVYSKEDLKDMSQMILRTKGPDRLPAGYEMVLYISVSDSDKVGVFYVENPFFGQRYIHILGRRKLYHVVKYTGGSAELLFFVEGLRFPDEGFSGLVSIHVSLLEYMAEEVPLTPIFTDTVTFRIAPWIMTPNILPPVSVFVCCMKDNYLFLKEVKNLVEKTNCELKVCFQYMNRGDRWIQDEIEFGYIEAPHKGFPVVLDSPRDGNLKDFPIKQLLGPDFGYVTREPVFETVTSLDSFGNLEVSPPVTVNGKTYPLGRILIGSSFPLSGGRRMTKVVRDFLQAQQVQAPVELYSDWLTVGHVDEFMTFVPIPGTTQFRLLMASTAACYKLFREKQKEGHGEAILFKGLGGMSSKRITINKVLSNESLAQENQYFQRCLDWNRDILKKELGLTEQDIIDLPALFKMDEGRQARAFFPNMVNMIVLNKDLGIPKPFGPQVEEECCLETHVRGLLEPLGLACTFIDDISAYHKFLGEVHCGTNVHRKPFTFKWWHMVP
# Legend:
# [1] = target: T2, N165 (from amino acid 165 to the C-terminus) (human, UniProt Q9Y2J8 165-665); assay: western blotting
# T2 construct: also called N165 splice variant
# Description: (§1) Different samples were loaded in gels (same procedure as SDS-PAGE) along with a pre-stained marker. […] The membrane was blocked in wash buffer and sliced into strips. Antibody culture supernatant (2 mL) was added 1:1 in diluting buffer and incubated 0/N at 4° C. HRP-conjugated rabbit anti mouse IgG was added 1:3000 followed by incubation 1 h/RT. Finally, the strips were washed, incubated 10 min in acetate buffer (50 mM CH3COOH, 33.75 mM NaOH, pH 5.0) and stained in carbazole staining solution (0.04% 3-amino-9-ethylcarbazole and 0.015% H2O2) in acetate buffer. Antibodies with affinity against the target protein were observed as red bands, and the approximate size could be held against the marker loaded on the gel.
# (§2) Different splice variants of PAD2 were evaluated by western blotting.
# [2] = target: N343 (from amino acid 343 to the C-terminus) (human, UniProt Q9Y2J8 343-665); assay: western blotting
# Description: as §1, §2
# [3] = target: T1, Peptidylarginine Deiminase isolated …; assay: western blotting, rPAD2
# Description: FIG. 2. mAbs (monoclonal antibodies) reacting with rPAD2 in western blotting. Culture supernatants from mAbs #1-30, an irrelevant mAb (A) and no mAb (B) were tested 1:1 in diluting buffer against 1 μg/mL rabbit PAD2-unreduced. Rabbit anti mouse IgG (diluted 1:1000) was added, 1 h/RT. Development was performed in carbazole staining solution. Molecular weight markers (kDa) are indicated in the middle of the blot with Novex® Sharp Pre stained Protein Standard. A 4-12% Bis-Tris zoom gel was used.
# as §1
# [4] = target: T3, human recombinant PAD4 (hrPAD4) (human, UniProt Q9UM07 1-663); assay: indirect ELISA, hrPAD4 coat 50 ng/mL
# T3 construct: Recombinant, provided by Ger Pruijn; also called hPAD4; human PAD4
# T3 sequence (Q9UM07 whole entry): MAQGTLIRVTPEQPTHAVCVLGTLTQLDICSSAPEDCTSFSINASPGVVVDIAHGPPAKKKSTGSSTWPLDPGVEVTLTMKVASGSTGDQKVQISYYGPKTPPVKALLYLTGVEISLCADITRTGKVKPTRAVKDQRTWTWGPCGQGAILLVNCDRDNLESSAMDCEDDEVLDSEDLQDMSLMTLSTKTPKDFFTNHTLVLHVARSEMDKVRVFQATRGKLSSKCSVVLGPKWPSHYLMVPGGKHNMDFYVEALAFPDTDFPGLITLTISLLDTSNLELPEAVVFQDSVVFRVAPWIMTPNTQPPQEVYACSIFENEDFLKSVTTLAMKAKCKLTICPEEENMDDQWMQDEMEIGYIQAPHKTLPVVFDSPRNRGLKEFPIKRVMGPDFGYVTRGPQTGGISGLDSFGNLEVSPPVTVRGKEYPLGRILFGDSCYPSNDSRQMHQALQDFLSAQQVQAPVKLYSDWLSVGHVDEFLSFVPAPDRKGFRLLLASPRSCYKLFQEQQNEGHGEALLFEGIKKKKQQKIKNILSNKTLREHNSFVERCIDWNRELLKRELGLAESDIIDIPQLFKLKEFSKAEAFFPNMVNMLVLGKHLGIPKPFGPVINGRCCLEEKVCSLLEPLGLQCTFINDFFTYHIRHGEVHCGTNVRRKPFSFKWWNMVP
# Chain of N343 (from amino acid 343 to the C-terminus) (Q9Y2J8 343-665): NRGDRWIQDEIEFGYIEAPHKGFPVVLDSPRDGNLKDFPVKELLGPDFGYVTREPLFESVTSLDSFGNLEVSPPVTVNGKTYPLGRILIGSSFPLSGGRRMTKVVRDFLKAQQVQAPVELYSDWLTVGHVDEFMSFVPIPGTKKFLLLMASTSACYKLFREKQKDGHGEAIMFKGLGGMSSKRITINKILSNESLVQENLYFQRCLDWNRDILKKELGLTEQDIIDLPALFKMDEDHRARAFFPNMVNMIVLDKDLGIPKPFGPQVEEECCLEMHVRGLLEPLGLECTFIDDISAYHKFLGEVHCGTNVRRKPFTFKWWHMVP
# T2 sequence (Q9Y2J8 165-665): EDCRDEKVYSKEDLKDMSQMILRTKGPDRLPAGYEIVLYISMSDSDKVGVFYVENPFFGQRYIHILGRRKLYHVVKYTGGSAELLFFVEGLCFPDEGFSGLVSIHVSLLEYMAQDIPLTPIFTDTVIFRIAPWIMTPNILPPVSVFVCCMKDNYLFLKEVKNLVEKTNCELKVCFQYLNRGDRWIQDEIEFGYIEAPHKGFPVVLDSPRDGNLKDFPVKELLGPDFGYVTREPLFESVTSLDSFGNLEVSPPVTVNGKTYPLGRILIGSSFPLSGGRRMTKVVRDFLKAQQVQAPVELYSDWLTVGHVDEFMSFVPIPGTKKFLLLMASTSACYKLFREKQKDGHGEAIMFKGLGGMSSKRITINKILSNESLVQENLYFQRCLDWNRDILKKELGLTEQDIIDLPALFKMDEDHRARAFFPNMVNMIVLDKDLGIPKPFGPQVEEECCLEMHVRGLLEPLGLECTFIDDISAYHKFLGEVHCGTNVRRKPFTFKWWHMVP
Binder,binding result [1],binding result [2],binding result [3],binding result [4]
"mAb #2 (antibody, V domains shown, Mouse IgG monoclonal antibody, unknown subtype; raised against rabbit PAD2) VH: QVQLQQPGAELVRPGASVKLSCKASGYTFTSYWMNWVKQRPGQGLEWIGMIDPSDSESYYNQMFKDKATLTVDKSSSTAYMQLSRLTSEDSAVYYCARKDYYAYGGAMDYWGQGTSVTVSS VL: QIVLTQSPAILSASLGEEITLTCSANSSARYMHWYQQKSGTSPKLLIYSTSNLASGVPSRFSGSGSGTFYSLTLSSVEAEDAADYYCHQWSGYPTFGGGTKLEIKR",no binding,no binding,binds,no binding
"mAb #6 (antibody, V domains shown, Mouse IgG monoclonal antibody, unknown subtype; raised against rabbit PAD2) VH: EVQLQQSGPDLVKPGASVKISCKASGYSFTAYYMHWVKQSHGESLEWIGRVNPNNGGSSYNQKFKGKAILTVHKSSNTAYMELRSLTSEDSAVYFCARGDYLPSLGYWGQGTSVTVSS VL: DIVMTQSQKFMSTSVGDRVSVTCKASQNVDTTVAWYQQKPGQSPKALIYSASYRYSGVPDRFTGSGSGTDFTLTVTNVQSEDLAEYFCQQYDSYPFTFGSGTKLEIK",,no binding,,no binding
"mAb #34 (antibody, V domains shown, Mouse IgG monoclonal antibody, unknown subtype; raised against rabbit PAD2) VH: EVQLQQSGPDLVKPGASVKISCKASGYSFTSYYMHWVKQSHGKSLEWIGRVNPNSGYTTYNQKFKGKAILTVDKSSSTAYMELRSLTSEDSAVYYCARGDYLPSMDYWGHGTSVTVSS VL: DFVMTQSQKFMSTSVGDRVSITCKASQNVGTNVAWYQQKPGQSPKGLIYSASYRYSGVPDRFTGSGSGTDFTLTISNVQSEDLAEYFCQQFNSYPFTFGSGTKLEIK",,no binding,,no binding
